B1: PD1-17 scFv (scFv, V domains shown)
VH: QVQLQESGPGVVKPSGTLSLTCAISGGSIGSGGSIRSTRWWSWVRQSPGKGLEWIGEIYHSGSTNYNPSLKSRVTISLDKSRNHFSLRLNSVTAADTAVYYCARQDYGDSGDWYFDLWGKGTMVTVSS
VL: NFMLTQPHSVSESPGKTVTISCTRSSGSIASNSVQWYQQRPGSSPTTVIYEDNQRPSGVPDRFSGSIDSSSNSASLTVSGLKTEDEADYYCQSSDSSAVVFGSGTKLTVL
notes: not shown: scFv linker and domain order
B2: PD1-28 scFv (scFv, V domains shown)
VH: EVQLVQSGAEVKKPGASVKVSCKASGYRFTSYGISWVRQAPGQGLEWMGWISAYNGNTNYAQKLQGRVTMTTDTSTNTAYMELRSLRSDDTAVYYCARDADYSSGSGYWGQGTLVTVSS
VL: SYELTQPPSVSVSPGQTARITCSGDALPKQYAYWYQQKPGQAPVMVIYKDTERPSGIPERFSGSSSGTKVTLTISGVQAEDEADYYCQSADNSITYRVFGGGTKVTVL
notes: as for B1
B3: PD1-33 IgG (antibody, V domains shown)
VH: QVQLVQSGAEVKKPGASVRVSCKASGYTLTSYYIHWVRQAPGQGLEWMGIINPRGATISYAQKFQGRVTMTRDTSTSTVYMELRNLKSEDTALYYCATAGIYGFDFDYWGRGTLVTVSS
VL: QSALTQPASVSGSPGQSITISCTGTSNDVGGYNYVSWYQHHPGKAPKLIIYDVTNRPSGVSDRFSGSKSGNTASLTISGLLAEDEGDYYCSSYTIVTNFEVLFGGGTKLTV
B4: PD1-17 IgG (antibody, V domains shown)
VH: B1 VH
VL: B1 VL
notes: also called anti-PD-1 antibody PD1-17
B5: PD1-28 IgG (antibody, V domains shown)
VH: B2 VH
VL: B2 VL
B6: PD1-35 IgG (antibody, V domains shown)
VH: QVQLQESGPGLVKPSQTLSLTCTVSGGSISSGAYYWSWIRQHPGKGLEWIGYIYYNGNTYYNPSLRSLVTISVDASKNQFSLKLSSVTAADTAVYYCARASDYVWGGYRYMDAFDIWGRGTLITVSS
VL: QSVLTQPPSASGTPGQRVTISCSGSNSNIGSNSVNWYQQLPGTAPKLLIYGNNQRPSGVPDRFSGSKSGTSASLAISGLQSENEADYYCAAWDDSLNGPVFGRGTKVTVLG
notes: also called PD-35

The binders below were run against T1, human PD-1 fusion protein (human, UniProt Q15116 25-170) (assay: purified scFv titrated; inhibition of biotinylated human PD-L1 fusion binding to plate-bound human PD-1 fusion).
T1 construct: also called Soluble PD-1 fusion protein; human PD-1/IgG chimera; not shown: fusion partner (IgG part of the chimera)
T1 sequence (Q15116 other isoform, or with tags, fused parts or gaps): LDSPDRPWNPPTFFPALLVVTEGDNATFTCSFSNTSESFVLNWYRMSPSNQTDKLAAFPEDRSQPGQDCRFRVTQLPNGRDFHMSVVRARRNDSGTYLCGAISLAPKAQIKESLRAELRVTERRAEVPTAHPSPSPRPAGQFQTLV
Experimental: ScFv production was induced by addition of 1 mM IPTG to exponentially growing cultures and incubation overnight at 30° C. Crude scFv-containing periplasmic extracts were obtained by subjecting the bacterial pellets from the overnight induction to osmotic shock. Pellets were resuspended in 20% (w/v) sucrose, 50 mM Tris-HCl, pH 7.5, 1 mM EDTA and cooled on ice for 30 minutes. Cellular debris was removed by centrifugation, and the scFv was purified by chromatography and buffer-exchanged into PBS. Purified scFv's (PD1-17, PD1-28, PD1-33, and PD1-35) were tested for the ability to inhibit the binding of biotinylated human PD-L1 fusion protein to human PD-1 fusion protein immobilized on plastic in a 96 well microtiter plate assay. Binding of biotinylated PD-L1 fusion protein was detected with AMDEX-alkaline phosphatase, and the signal generated was measured by reading the absorbance at 405 nm using a microtiter plate reader. Data was expressed as a percentage of the total binding and a titration of scFv concentrations was tested to establish clone potency as calculated IC₅₀ values.

Binder | IC50
B1 | 726 nM
B2 | 560 nM

The binders below were run against T1, human PD-1 fusion protein (assay: IgG titrated; inhibition of biotinylated human PD-L1 fusion binding to plate-bound human PD-1 fusion).

Binder | IC50
B3 | 1.8 nM
B4 | 2.5 nM
B5 | 1.4 nM
B6 | 2.3 nM

From US20060210567A1 (AstraZeneca / MedImmune, published 2006)
